The values below come from the DeepSol protein solubility set.

This series in a line: soluble on expression in E. coli; label from the status in PepcDB or PDB records.
Take “MAHHHHHHMVQVVHRHGERSALINDNKTEICGTLYPCGELTGERVKMVRAIGEFARSRYNDLSLVESPLCPSTQYNSSLVYTRPTHTQRTIQSATAFLHSLFQDDYFYPVAYSVNRTTDMLLSTDAVPSVVGRSWLDNQAVYPGLMEVNAAWFKYVFSWNHTSKLDLTQGSASQNLEQAMLANINAPPRLSPSYNMFHYSAHDTTVTPFAATFGDQGNTTMHPPFAVTSFVALLQDTADASGWYVRLIRSNPVKVASGTYVFRQTGIAVHCFDATGNRYRVSTGICPLDDFRRMVDHSRPAVADGHSAMTHAQYSNMGSPRTIADNKLVPLRCWIYRYACPSKSCPGSYILSAVDHQCYPQTDIPNSSSSEGTSSSDVSSFKKPANWMPRVSSPEKSRHIAADILRGVTNGVTVGAAVRKHDEYRRHC”: the “soluble on expression in E. coli” value is “not soluble”.

For the sequence “MYVMTQSGWLEVICGCMFSGKSEELIRRVRLAQFAKQEVKVFKPTIDNRYSEDAVVSHNGNSVIAIPVATPAEMFRYISAATDVVAIDEVQFFSDDIIDVVQTLADGGCRVITAGLDQDFRGEPFGPVPALMAIAESVTKLQAVCTVCGSPASRTQRLINGAPASYDDPVILVGASEAYEPRCRHHHEVPGKPKKRYNRPLAGHTGE”, the “soluble on expression in E. coli” value is on record as “not soluble”.

As for “MGMKFRVVCRKLYDYVRYDLKEIAFPSSLPDPPHIKKRPKLTLKDKWCILKEATRLYGASWVRDIGPDLRPNDYKKVKEEPDIKTEEGSSEPTTVEDLLGALKGGAEKAKPALQRMYMARASNYTDALKNYVESYKEGLKEHLEEEAMGKGHRQGNDATKPPQSPSS”, the “soluble on expression in E. coli” value was “soluble”.

As for “MVMNQKNLFTRSALAAAIALISSNVSAAGFQLNEYSAAALGRAFSGEGAVADNASVGSRNPAAMTLFDRPSFSGGVIYIDPSVDITGTSPSGKSTDASNIAPSAWVPNLHFIMPLDEQWAIGASATSNYGLATEFNDDYVAGMLGGQTDLKTANLNLSAAYRLNDNFSFGLGFDAVYADAKIVRHLGEAGGGLLPANTEAARLEGTKWGYGWNTGILYEIDKENRYSFTYRSEVNIDFDGDYSNQLPVIFGGLGGKTVPGSLTLNLPAVWEVSGYNKVAPQWAIHYSMAYTTWSSFKELKATASNGDVLFDKHEGFRDAYRIALGTTYYYDDNWTFRTGIAFDDSPIPAGNRSISIPDQDRFWLSAGTTYAFNKNASVDVGIAYMKGQNVSITEKTPAPSNTTYEFNSKGSAMLYGVNFNYTF”, the “soluble on expression in E. coli” value is on record as “not soluble”.

With “MGSDKIHHHHHHMKGRMPIIEALCAHVERNATSWHVPGHKNGTLFEGLPSFFEWDKTELRGLDDFHYPEEAIYEAKLLLRQVYEARDSHFLINGSTVGNWAMLAAVSQRGDRIYVQRNSHKSVFNALEWLGLSPILLGPEIDPSTGISGNVSRETLEEALTTFPGGVAVFLTSPTYYGETARIEELLPFTTASGIPLLIDEAHGAHFGEAFGVRSAFELGATAVVQSAHKTLPALTMGAWIHERFTDDERRRLTRALQAFQTSSPSYLLMASLDFAREYREKWTVSNMKSVRTSHEHLHQQINQLTDITAFTFDDWSRMILSCEEYSGSQLIEALADQGLDAEFALGPHVVCILPLRSIEPFEQDTWINQIQLAIETLKAEGIPDKRYMEQPFMGKIKVSSLACPLDQLEDAEAVEQTFEQSVGLVSLETIIPYPPGIPLILRGERITAEHITMIEHYINTSIHLQGGEFLHQGKLRVIQEGIRE”, the “soluble on expression in E. coli” value is given as “not soluble”.

In the case of “DMKPNSTKIGVAEATDAALIQALQQRQVFTKTTQPTLSWEQYLELNLNSKSKRLALCNKLHLSYFNHKQLFRKLNLLQLTFDQVCQLLK”, the “soluble on expression in E. coli” value is given as “not soluble”.

For the sequence “VARADESLQQVVMAYFGVQFKSEQKAIALKAMQHIVQSFSLDNGPQNHDITHHTDNQGYENYIVVGYWRDPGAYCRWFRSTEVSHWWDSDERLNDGIGYFREIVIPRADQFETLYAFKEDLPGVGAVMDDISDDIQEHGYWGSARERF”, the “soluble on expression in E. coli” value was “not soluble”.

Consider “AVSFIGSTENDVGPSQGSYSSTHAMDNLPFVYNTGYNIGYQNANVWRISGGFCVGLDGKVDLPVVGSLDGQSIYGLTEEVGLLIWMGDTNYSRGTAMSGNSWENVFSGWCVGNYVSTQGLSVHVRPVILKRNSSAQYSVQKTSIGSIRMRPYNGSSAGSVQTTVNFSLNPFTLNDTVT”, for which the “soluble on expression in E. coli” value is given as “soluble”.

As to “MHRSFAAFSILLVAIPQASSFLFGGGCCGAPAVQSCCGSTSWAYAPPQVIGYERIPLYAKVPMPPPPTYVQPPLVGYVSPQQPVAPQGYQQQPQQQFMGQVEQGVEITPDQINSGYQPQQQMGFQSQQQQFSSIPNSGSSNYGADSSFSGSQPAGLVQSVASSAAFEAAGVAPSARRLRKFKN”, the “soluble on expression in E. coli” value was “not soluble”.

With “MSLKTVAVIGAMEQEIELLREMMENVKAVSFGRFSAYEGELAGKRMVLALSGIGKVNAAVATAWIIREFAADCVINTGSAGGLGKGLKVGDVVIGTETAHHDVDVTAFGYAWGQVPQLPARFASDGILIEAAKRAARTFEGAAVEQGLIVSGDRFVHSSEGVAEIRKHFPEVKAVEMEAAAIAQTCHQLETPFVIIRAVSDSADEKADISFDEFLKTAAANSAKMVAEIVKSL”, the “soluble on expression in E. coli” value is “soluble”.

As to “GRSDTYDVLANRIENAVEQHRTEQRFWNALSWYQRLVEQELAGVCIIQDGTFVYVNQKLADIFSYDQSELIDESPALLTAEGDGDRLPESLRAADSDELDTFHSKFEGRQANGETRTIEVSGGSIEYDGEPAWIGVLRD”, the “soluble on expression in E. coli” value was “not soluble”.

Regarding “MGSDKIHHHHHHMCGHAKGGLTVLVSSRACPPQVQHRYLKTVLYLDCPQEVGDQSSPWWLLNIGYWLYGSACMLCKAAFGIELATEPQMEFSAHKGTTSISLVRDALQGAELRGLDVATVLSHAHIDPRLLDQRYARVPAGTFSRLWIALADLLDDEFFAADSHPLRRGSFKLMAQLALGCDTIGQALKRILAFLRTALDDIYGSVECEGEHAAIIIHDHGELRRVFCYGAWLVLVHGLLCWLCDRRIPIVKLSMRPPQPVDDSDYRMRFCEEIEWRADRTSAVFEKSFLAYKVCQTPVSLPAFLKGTPSNFLVKYRNDDSTSIMIRRRLKLLSPHTWPELDELARDLSMSSSTLQRRLYAEGFTYQRLKDNLRRDISISLLCRAGMTVDGVASEVGFIETSAFHRAFKKWTGITPGAYRRSLLSPRGD”, the “soluble on expression in E. coli” value is listed as “not soluble”.

Turning to “MAAISLAKVEETAPALVSLYKSAGVSLHKHGLDGQRAAVYLVVDYSGSMRPYYKDGSVQALTDRVLGLSAHLDDDGTVPVVFFSTDIDAVTDIALADHQGHIELIVAGLGHMGKTSYHLAMDAVIDHYLDSGSKDPAFVVFQTDGGPTSKPAAERYLCKAAELPLFWQFIGFGDPGSRQFEFLRKLDELAVPHKRVVDNAGFFHAGTDPRKVSDGELYDRLVGEFPQWLAAARTHGIVRLEHHHHHH”, the “soluble on expression in E. coli” value is recorded as “not soluble”.

As for “MGSDKIHHHHHHPEQIEKYPSIYPDYIGVTIPATIAPMNFSYTDTSYERIDVIVKGHQGKEVHINAKHVNFPEKEWKQLLNSNQGDSLLFTVSIKQKGKWSTYKPFPMYISPHPIDYGLVYRKIAPGYEVYSRMGIYERDLSSHKERPLVENTLVKGMCVNCHAFNRTDPSHFSLHIRGTHGATFMRTGNKDEYLNTKTDQTIAACVYPYWHPGGEYIAYSTNNTRQSFHTVKDERVEVLDLESDVVVYHPADHHLLLCDSLQKKDRFETFPAFSPDGRTLYFCSAEAKKIPEEYKEIRYNLCSIDFDPSTGTFGSRIDTLVNAEALGKSVSFPRPSYDGKYIMFTLSDYGNFSIWHKEANLWLLDLTSGDLRELSEVNSDDTESFHNWSSNSRWFVFSSRRGDGLYTRLYLASMDENGKISKPFLLPQEDPETYYDRSVYSYNVPDFVNAPILLDTKVFEKRITSKERIQVQVGN”, the “soluble on expression in E. coli” value is “not soluble”.

Take “MSLLAYTYIEHGKFELREKPEPKITDARDAIVRVTLGSICTSDLHIKHGSVPRAVPGITVGHEMVGVVEEVGAEVTSVRPGDRVTVNVETFCGECFFCHHGYVNNCTDPNGGWALGCRIDGGQAEYVRVPYADQGLNRIPDTVSDEQALFVGDVLATGFWATRISEITEKDTILLIGAGPTGICTLLCSMLKNPKRIIVCEKSPERIQFVREHYPDVLITTPENCKEFVLQNSDHSGADVVLEVAGTEDSFRMAWDCARPNAIVTIVALYDKPLLFPLPEMYGKNLTFKTGGVDGCDCAEILSLIEEGKIDTTPLITHRCSLNEIEEAYRIFENKLDGVIKVAIVCQTESEGHHHHHH”: the “soluble on expression in E. coli” value is “soluble”.

Regarding “MGSDKIHHHHHHMDLGAPIGAHGNQPETEAATQCEIVLQGPTCGFPSWTRHCNIDCIRDFQPFDRLMKQGQRKTKLEFHNDGRLLAAQGDDICGPDLAFYRVTLSLQQRFDRGVEILFTFHPGHACPGSVSMAMCPRLIFMRNTMNRLLSRAQRSGDRRHALGHSGAVPATLRPFLSLICFCLVAVWMATPLRAACSGLDLRESAAPGMWAEIEAEIALTPFARGLSWVATRGDRRLHIIGTMHLNDPRHDALVAHMAPAIQAADAVLLEVNRADKARLERTLAETPSLIFITEGPTLIDRLPPEEWDEIAERAGAAGIPPFMAAKMRPWFLSLSMSVPLCARAIEDVTDGLDMKLMTLAERAGVETLSLEDPLGLFQLFDATPIEEQIKELRSYIAMAGVGADDFYTMVESYFDGEVQAYVLLQLKQFLTSESDLSVAERQAQVDDLLEALLYQRNRDWIPVIEATAGNRLVIAVGAAHLPGEAGVLALLEAEGYQIEEALR”, the “soluble on expression in E. coli” value is on record as “not soluble”.

For the sequence “MAHHHHHHMTTTASPQTGSSPTVPTPVAPPSIDEALSYWIGLSRLIHRVCVTSDSTPSADEGEPSTFTRYALHCVLLCCGIKQHRVRQTADHMLAQLLSAAYTTAAALTGPVVLLDSESPASTPFRSPVRQLPVPLPVLVADWLKQSSADDQKASQHNRYCLRVPAVTWTRSIIKWLGSELRGQMISLRPLSRWNMVCAQQSGRMPVVIFVGGASGAGKSTLASLVASQLRVPNVLSTDTVRQVLRARLCGHEAQFPALFVSTYEAHKVTADDSHASADDGSAVPHAQSADENAIVQGYEAQCELVLRVLDGMLARLLARRESIVVEGVHLLPRYLAAKRAELLVSRVACVPVLVRIPKADSHLERLCIRARGMSMRAQNNKYIASFKAIRAIQAHLVDSVEAASLPVLVLSNTNMDKSFTALHHTLLETMEYAAVHGWPADAAAAADVPLTGLVFRAVKDRLVAVVRQRRWRRSATNDNISTSSGTGASAPGDEEKGGVATGPFSALVLAPHARPPVHSPAGSSNGAAPRARSAELLGVVQRCLLEQGLRYHSRTSNAQVDAATVYGSSGVLGARDASSRFHAHVVIRRSFTIAAKSHISMTASSHLPLDNHNEEFDELEIPSLIGS”, the “soluble on expression in E. coli” value is on record as “not soluble”.

Take “LVERDSFVNALRESERRYRNIIETASEGILIIDSEVRISYANKKMTDMLGCPLEEVTGRKMCDFVSEESKDIVKLNQKRRRQGINDSYELKLVCKDGSSLWALVNAKSLFDKDGKFMGSISLLTDIT”: the “soluble on expression in E. coli” value is “not soluble”.

Take “MSDLTKLDWNHIRAFLKTAETGSLSAAARRLDLTQPTLSRQVAALEQDLGVMLFERIGRTLVLTDAGADLLEHTRAMGAAADRVALAASGQAQSIEGRVRITASDVMSAYVLPEALRRIRAQAPRLEIEVIAANDIRDLMRREADIAIRHVRPEQPDLIARLVREATAHFYAASGYLDRRGRPVTKDDLATHDFIAFGDVTEMLGHLTPLGLPLTRANFRLGSQSGVVAWDYVRQGFGIAPMDDGVAAATPGVERVLPQMEPLLFPVWLTAHRELHTSRRIRLVFDILAEYLTG”: the “soluble on expression in E. coli” value is reported as “not soluble”.
